In patent US20240174754A1 (ABCURO, published 2024) one finds EC50 and IC50 data, which are given here for one molecule.

Assay [1] has as its target T1, full length human KLRG1 expressed on CHOK1 cells (CHOK1-hKLRG1) (human, UniProt Q96E93 1-195).
T1 construct: whole, on cells; also called killer cell lectin-like receptor G1
T1 sequence (looked up): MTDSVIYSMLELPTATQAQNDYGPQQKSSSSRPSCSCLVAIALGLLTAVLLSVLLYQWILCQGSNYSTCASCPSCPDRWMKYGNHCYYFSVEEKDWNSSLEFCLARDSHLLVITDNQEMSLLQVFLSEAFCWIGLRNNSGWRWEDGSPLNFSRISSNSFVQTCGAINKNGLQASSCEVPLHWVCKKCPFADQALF
Briefly: FACS on CHOK1-hKLRG1 cells, anti-human IgG-Alexa 488 detection. The protocol:
Binding of anti-KLRG1 monoclonal antibodies to cell expressed human and cynomolgus-KLRG1 is carried out by FACS. Chinese hamster ovary (CHO) cells are stably transfected to express full length human KLRG1 (CHOK1-hKLRG1)). CHOK1-hKLRG1 expressing cells were cultured and incubated with varying concentrations of either PA015 or control human IgG1. Cells were then centrifuged, the supernatant discarded, and washed with an incubation buffer (HBSS+2% FBS+10 mM Ca2+). Cells were resuspended and incubated with anti-human IgG-Alexa 488, washed, resuspended, and underwent FACS study.

The target of assay [2] is T1, full length human KLRG1 expressed on …. The assay is described as follows: FACS competition on CHOK1-hKLRG1 cells; inhibition of E-cadherin-ECD-FC-biotin (0.3 uM) binding. The protocol:
The ability of monoclonal antibodies to inhibit E-cadherin/KLRG1 binding is measured by FACS.
CHOK1-hKLRG1 expressing cells were cultured and incubated with varying concentrations of either PA015 or control human IgG1. Recombinant human E-cadherin-ECD-FC-biotin at 0.3 μM was then added and incubated. Cells were then centrifuged, the supernatant discarded, and washed with an incubation buffer (HBSS+2% FBS+10 mM Ca2+). Cells were resuspended and incubated with Streptavidin-Alexa 488, washed, resuspended, and underwent FACS study.

Assay [3] shares this target. Briefly: FACS competition on CHOK1-hKLRG1 cells; inhibition of E-cadherin-ECD-FC-biotin (0.3 uM) binding (Example 7). The protocol: CHOK1-hKLRG1 expressing cells were cultured and incubated with varying concentrations of PA015, HG1N01, HG1N02 or control human IgG1. Recombinant human E-cadherin-ECD-FC-biotin at 0.3 μM was then added and incubated. Cells were centrifuged, the supernatant discarded, and washed with an incubation buffer (HBSS+2% FBS+10 mM Ca2+). Cells were resuspended and incubated with Streptavidin-Alexa 488, washed, resuspended, and underwent FACS study.

B1: PA015 (antibody, human IgG1, kappa, V domains shown)
VH: QVTLRESGPALVKPTQTLTLTCTVSGFSLSTFGMGVGWIRQPPGKALEWLAHIWWDDDKWYELALKSRLTISKDTSKNQVVLTITNMDPVDTATYYCARVIYYGSRSAYYSMDYWGQGTTVTVSS
VL: DVVMTQTPLSLSVTPGQPASISCKSSQSIVHSNAHTYLEWYLQKPGQSPQLLIYKVSNRFSGVPDRFSGSGSGTDFTLKISRVEAEDVGVYYCFQGSHVPVTFGQGTKLEIKR
notes: also called PA015 antibody; anti-KLRG1 antibody PA015
One may read the EC50 as the concentration giving half of the maximal effect. One may read the IC50 as the concentration needed to halve the response being measured. A low value points to higher potency. Consider B1, for which the EC50 in assay [1] came to 1.33 nM. The figures for the concentration for half-maximal inhibition (IC50) in assay [2] and in assay [3] were 8.05 nM and 5.3 nM, respectively.
